Data published in patent EP0730651B1.

Legend:
[1] = target: soluble KGF receptor (FGFR(IIIb); K-sam) alkaline phosphatase fusion (FRAP) (murine) (UniProt P21803); test: displacement of 125I-FGF-7 from soluble FGFR2(IIIb)-AP
[2] = target: soluble KGF receptor (FGFR(IIIb); K-sam) alkaline phosphatase fusion (FRAP) (murine) (UniProt P21803); test: competition with 125I-FGF-7, receptor binding experiments like those of Example 6

Sequence of UniProt P21803 (P21803 22-377): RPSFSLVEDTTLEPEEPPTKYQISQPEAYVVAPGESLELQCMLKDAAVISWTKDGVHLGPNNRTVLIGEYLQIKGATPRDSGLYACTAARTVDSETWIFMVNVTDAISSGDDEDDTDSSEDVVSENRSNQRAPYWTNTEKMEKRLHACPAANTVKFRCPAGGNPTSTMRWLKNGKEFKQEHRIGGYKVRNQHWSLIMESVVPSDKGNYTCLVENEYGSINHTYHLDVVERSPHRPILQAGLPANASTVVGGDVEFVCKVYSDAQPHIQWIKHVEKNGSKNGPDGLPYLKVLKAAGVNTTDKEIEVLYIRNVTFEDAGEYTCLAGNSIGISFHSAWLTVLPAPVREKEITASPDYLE

Row | fold weaker binding than FGF-7 or FGF-1 [1] | fold weaker potency of competition than unlabelled FGF-7 [2] | Substance
1 | 5 times less | – | FGF-2LA (human FGF-2 with surface loop residues 118 to 122 replaced by the corresponding bovine FGF-1 sequence) (ligand)
2 | – | 100 times weaker | FGF-2LK (FGF-2 loop mutant containing the 9-residue loop sequence Ala-Lys-Trp-Thr-His-Asn-Gly-Gly-Glu from FGF-7) (from UniProt P09038 1-117; P09038 123-155) (ligand)
